This series has as its target APC (full-length; APC-TMR when labeled) (Mus musculus, UniProt Q61315 1-2845). The series can be described thus: single-molecule TIRF-M co-diffusion on microtubules.

APC (full-length; APC-TMR when labeled), sequence (Q61315 whole entry, the tested form may be a part): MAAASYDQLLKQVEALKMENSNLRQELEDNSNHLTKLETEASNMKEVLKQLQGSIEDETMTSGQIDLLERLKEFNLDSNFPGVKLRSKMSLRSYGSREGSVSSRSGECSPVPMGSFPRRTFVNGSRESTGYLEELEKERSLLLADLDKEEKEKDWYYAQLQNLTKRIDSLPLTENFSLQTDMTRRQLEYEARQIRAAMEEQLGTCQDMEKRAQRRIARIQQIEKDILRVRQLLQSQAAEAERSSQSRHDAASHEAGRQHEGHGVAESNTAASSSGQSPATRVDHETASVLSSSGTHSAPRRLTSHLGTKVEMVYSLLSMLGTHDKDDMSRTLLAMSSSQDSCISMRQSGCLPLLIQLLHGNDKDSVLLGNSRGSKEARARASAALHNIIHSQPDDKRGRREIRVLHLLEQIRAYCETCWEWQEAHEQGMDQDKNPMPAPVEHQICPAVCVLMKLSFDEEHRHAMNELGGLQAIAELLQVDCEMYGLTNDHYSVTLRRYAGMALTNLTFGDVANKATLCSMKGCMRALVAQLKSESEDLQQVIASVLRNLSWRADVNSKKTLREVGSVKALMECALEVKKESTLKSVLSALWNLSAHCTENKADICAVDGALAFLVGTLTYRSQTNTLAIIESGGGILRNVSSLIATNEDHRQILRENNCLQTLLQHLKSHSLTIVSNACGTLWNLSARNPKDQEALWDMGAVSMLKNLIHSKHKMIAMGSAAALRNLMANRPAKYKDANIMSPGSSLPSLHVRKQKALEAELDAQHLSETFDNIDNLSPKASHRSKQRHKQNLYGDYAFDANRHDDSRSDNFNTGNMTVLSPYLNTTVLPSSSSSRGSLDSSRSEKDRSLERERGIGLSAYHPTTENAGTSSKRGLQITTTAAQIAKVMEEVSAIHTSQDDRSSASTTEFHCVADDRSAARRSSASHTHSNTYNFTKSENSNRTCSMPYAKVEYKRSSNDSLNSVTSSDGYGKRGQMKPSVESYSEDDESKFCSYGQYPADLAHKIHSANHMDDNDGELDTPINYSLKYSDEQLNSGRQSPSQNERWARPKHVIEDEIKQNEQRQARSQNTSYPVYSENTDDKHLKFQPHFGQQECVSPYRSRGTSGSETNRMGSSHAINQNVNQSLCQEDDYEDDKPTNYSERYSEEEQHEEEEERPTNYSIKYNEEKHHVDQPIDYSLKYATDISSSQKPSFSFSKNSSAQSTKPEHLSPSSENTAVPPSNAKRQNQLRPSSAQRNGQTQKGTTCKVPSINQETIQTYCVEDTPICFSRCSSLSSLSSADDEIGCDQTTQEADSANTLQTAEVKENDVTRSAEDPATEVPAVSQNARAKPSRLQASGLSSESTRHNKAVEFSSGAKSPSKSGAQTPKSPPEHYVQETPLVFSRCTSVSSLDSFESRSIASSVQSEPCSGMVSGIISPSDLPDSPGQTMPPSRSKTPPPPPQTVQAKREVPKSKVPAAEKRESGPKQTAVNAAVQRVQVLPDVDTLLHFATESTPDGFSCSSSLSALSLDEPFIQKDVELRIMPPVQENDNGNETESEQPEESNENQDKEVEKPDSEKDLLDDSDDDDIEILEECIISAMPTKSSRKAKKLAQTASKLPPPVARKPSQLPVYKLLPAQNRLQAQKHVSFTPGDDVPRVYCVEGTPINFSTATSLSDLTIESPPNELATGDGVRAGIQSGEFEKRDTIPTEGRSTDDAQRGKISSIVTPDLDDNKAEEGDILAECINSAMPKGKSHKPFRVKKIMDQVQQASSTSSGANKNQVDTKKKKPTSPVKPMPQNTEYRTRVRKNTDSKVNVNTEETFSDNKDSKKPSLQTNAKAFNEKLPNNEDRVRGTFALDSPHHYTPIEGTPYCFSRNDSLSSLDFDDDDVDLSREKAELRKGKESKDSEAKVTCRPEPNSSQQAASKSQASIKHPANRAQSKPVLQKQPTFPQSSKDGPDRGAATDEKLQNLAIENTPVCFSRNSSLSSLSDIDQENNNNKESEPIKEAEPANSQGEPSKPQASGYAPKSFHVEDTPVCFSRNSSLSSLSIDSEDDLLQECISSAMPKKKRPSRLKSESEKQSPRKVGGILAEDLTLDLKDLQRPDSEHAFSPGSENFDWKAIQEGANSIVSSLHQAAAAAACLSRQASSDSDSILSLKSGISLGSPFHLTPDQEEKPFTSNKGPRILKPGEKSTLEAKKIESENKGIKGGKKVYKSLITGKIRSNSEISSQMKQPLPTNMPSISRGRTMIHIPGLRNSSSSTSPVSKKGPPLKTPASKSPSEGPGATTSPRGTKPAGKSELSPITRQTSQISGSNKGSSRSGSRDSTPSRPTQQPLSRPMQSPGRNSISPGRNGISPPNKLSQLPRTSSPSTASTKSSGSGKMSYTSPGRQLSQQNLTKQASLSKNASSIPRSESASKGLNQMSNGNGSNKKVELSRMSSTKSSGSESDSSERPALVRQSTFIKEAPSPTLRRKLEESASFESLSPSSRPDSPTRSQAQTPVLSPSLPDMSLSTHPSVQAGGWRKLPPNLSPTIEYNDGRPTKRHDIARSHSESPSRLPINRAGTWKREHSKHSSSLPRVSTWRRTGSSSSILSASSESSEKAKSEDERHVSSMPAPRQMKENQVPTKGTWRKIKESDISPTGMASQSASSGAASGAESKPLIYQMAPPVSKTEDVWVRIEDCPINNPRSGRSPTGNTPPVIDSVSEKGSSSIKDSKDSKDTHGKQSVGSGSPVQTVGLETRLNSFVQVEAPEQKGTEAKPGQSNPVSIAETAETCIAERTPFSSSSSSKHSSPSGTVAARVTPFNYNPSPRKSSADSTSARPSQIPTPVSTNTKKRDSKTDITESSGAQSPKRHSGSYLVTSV

B1: β2Btubwt (ssRNA)
RNA: GUUCCCCAGGCCAAGCAGGUUAGGGAAAGCUGAGAUGAAAGGAGGGGGUGGGGGGGCUUAAUCUGUGAAAAUACCUUGGCAGUUGAA
In the case of B1, the binding result is given as “binds”.

For the origin of these results see article PMC7069705.
